assay: soluble on expression in E. coli; label from the status in PepcDB or PDB records

Sequence | soluble on expression in E. coli
MPELPEVETTRRRLRPLVLGQTLRQVVHRDPARYRNTALAEGRRILEVDRRGKFLLFALEGGVELVAHLGMTGGFRLEPTPHTRAALVLEGRTLYFHDPRRFGRLFGVRRGDYREIPLLLRLGPEPLSEAFAFPGFFRGLKESARPLKALLLDQRLAAGVGNIYADEALFRARLSPFRPARSLTEEEARRLYRALREVLAEAVELGGSTLSDQSYRQPDGLPGGFQTRHAVYGREGLPCPACGRPVERRVVAGRGTHFCPTCQGEGP | soluble
MPEMPEDMEQEEVNIPNRRVLVTGATGLLGRAVHKEFQQNNWHAVGCGFRRARPKFEQVNLLDSNAVHHIIHDFQPHVIVHCAAERRPDVVENQPDAASQLNVDASGNLAKEAAAVGAFLIYISSDYVFDGTNPPYREEDIPAPLNLYGKTKLDGEKAVLENNLGAAVLRIPILYGEVEKLEESAVTVMFDKVQFSNKSANMDHWQQRFPTHVKDVATVCRQLAEKRMLDPSIKGTFHWSGNEQMTKYEMACAIADAFNLPSSHLRPITDSPVLGAQRPRNTQLDCSKLETLGIGQRTPFRIGIKESLWPFLIDKRWRQTVFH | not soluble
MPERYTGSDGKTYLFKGWYKGNAKPSTLETTKTPSYAVTYDDNDDLHVVYEEAVMKTYTLPAREALFGYVDEQGNLINPAKFKLSATMGESDGATGEMTTFPTIDGIDMPASQLKKLAIPQKVYTRPDDGTIVTYGPQEVSVEIPKYYQTISISPTTAYTGDKTKYPVPNEVRRGIENPDNIVSSLVGTTAYNLTQKSATRYTARRSYWTWGPTKTLYSMSIYSGTAGGNYNLSTPDGTIYYYLENRRVTEHFVDESGAKITPPTGFTQGNQLVVDSENYVYTVAKALPKIYQAGEKTYIFQGWFKGKTKPATLKTTTTPSFTPTFNDEDDMTAVYQEAIPTAELTLTGAVDIIENGATMDYWEALLKNTGEAPLTTIKIKPTATWAAGIGAPNTIFVQGTGQNTKAFPVTKEQWTTGAGVSITLDQPLPAGGQLKMNLLGTAVTGNPGQVLTADVEVTGNFGSLTAKDTVRIKDLDQEITSPDGDGFISTPTFDFGKLAISGSKQQYGLKKAADYYGNGTRNPYLRLNTSQANWSLTAQLSQPKSATDSLPTTTRLLLGTAAAASFTDYNQPTETRTPLGKTSTVTLTADNTATAVVANQQFTGSDVYQLDFTFANIKLEVPANQGMAGQQYQAAVTWNLVTGP | not soluble
MPETELHVIFDQPNEVFFPGQPISGRVVLSTTKEKYKARAVNIKILGLAHTSWTDYESVRRVDADGKVSHHRQSVHYSANVNYLDYTLLLWACKDGSNELAAGEYAWSFSYNLPLNVPPSFEGKYGYLRYSVTAEVDRPWRLDKAKKRCITVSPLIDLNVIPHALTQINDQASENLGCCCFKKGYLELRVNIPKTGFVPGETVPMNIHILNHSSVPVTEVKAKIIQQCKFIAYRNGTTFHYGGGYETGMSGQLQETKHDTKTVVKHGQEMTVAPRNEHKFAMELRLPSVTPTINQFSPVITVEYIVQFHVETSSTFGSDVDCEMGILIGTVPIRQFLPPAYYPQDPNLPQILPTPIGGGVVAPPPGYGFLPMADGSEKGAGDASYPAASMPMYPIPNVPYPSKDDGTVVIPSAPPLSYEESMFGQDGTELNTDENEQPFAPKYPVFNNLPVYNPTAPPPE | not soluble
MPEVSFIICTRNRVAVLEACLKSVQAACRAHAGFAAELVVVDNGSSDRTAERLASIAAMSDIPFTPVSEPRRGLAAARNAGLRRARGRVLVFVDDDCAVHCDYLRDLERHYASGEQGLIRGGRVELGDPRDLPFTIKRSRVCERLTPDIHPGGFVLGCNMTMHRDVAARIGDFDERFGAGGPLRSAEDTDYLVRAVLLGIPVEYVPDMTIFHHHGRRDRKAIEKLHRDYSLGNGGLCLKHIRHAPWLLRHFYWAARGALRELAGGPAFDRDLDLSHRPIVGMNVLGAARYALLLLARRPQAEPARQDQQANAEAPLLEHHHHHH | not soluble
MPFVPVAALKDYVGKDLGHSEWLTIDQERVDQFAECTGDHQFIHVDPEKAAKTPFGGTIAHGFLSLSLIPKLMEGLLVLPEGLKMAVNYGLDTVRFIQPVRVGSRVRLGLTLLDVNEKNPGQWLIKARATLEIEGQEKPAYIAETLSLCFV | not soluble
MPGGRGRIGVILPANNAGMEYDLWKMAPEGVSIHSTRMKPTKGCEPENVEEFEKELKYSYSLLAEVSDIIIYGRTYGTHKHAHVIKRVIKDVVIPEESVYELLKKLNVRKLWIGTPYIKERTLEEVEWWRNKGFEIVGYDGLGKIRGIDISNTPIFTIYRLVKRHLNEVLKADAVYIACTALSTYEAVQYLHEDLDMPVVSENAAAMWEALNKLKIKAKLPGF | soluble
MPHIVKSTILDAPTDAAWSVLRDFNGHDRWHPAVATSMIERAQPSDKIGCVRRFKLKDGSELREQLLALSDLEQSFSYCLLDTPVPMFNYVAHVRLLPVTDGDRTFWHWESRFTTRPEDKDRITHMVAEDIYQAGFEAIRRHLKEAASSWPLEHHHHHH | soluble
MPHPAPNAAAPRVHIIGAGMAGLACAVRLVSHGRAVSLHEAAGQAGGRCRSFVDASLDRLIDNGNHLLLSGNRAVNAFLATIGASDRLDGPERARFPFLDVETGERWCLTPSAGPVPWWLLRADRRIPGTRARDYLEGLKLARASDADRVADLLTPGTPLYRRFWAPLTVGVLNAAPEEAAAALLWPVIKETFGRGEAACRPRMARNGLSDSFVTPALAWLTARGAEIAFNHRLRAIEYGDGRPAALVFSEETPLRLGPADQVVLAVPPAVAAGLLPGLTVPEGSRCIVNAHFRLDHAPEGFADDFEGPLGVIGGTAEWLFVRGDVASVTVSAADALAALDPDEIAARIWRDVALALGLDAAARPPVRIIKEKRATFAQTPDQLCRRPPTRPPGYGLCLAGDWTHTGLPATIEGALRSGEAAADAALHWRFTLEHHHHHH | not soluble
MPHSQTSAPRDSLAGVRLARGASPWLLPTVATAAVSLLRARRSGTAKAVAVPATALAAGMLWFFRDPEREITQGRVVSPADGVVQSIMPWKDGRTRVAIFMSPLNVHVNRAPLAGTVTSVEHVPGGFVPAFNKESENNERVVWHFDTELGDIEMIQIAGAVARRIVPYVPQGTKVEQGERVGLIRFGSRVDLYLPEGVEVDVEVGQKTVAGVTRIDRDLEHHHHHH | not soluble
MPIHSLSLAGFRSIRKLTLELDALNVVVGANGCGKSNLYKSIQLLHAAAEGGLSAALAAEGGAQKAMWAGGTRRGDKARVPKRMILSARLDDYDYELQLGYPEPSCSLFALDPLVKEESLWLAGHGRRPSTLLLERRNQAAFLCGVEGERNSYPASLRAEESLFGQLAEPHRYPELSQVRETLRNWRFYHEFAIWPGSPLRAPQVGIRSPVLAHDGANLAAAFQTIVEIGDHELLHSVLTDAFPDSRFLVDAQQGRFQMLMRRDGLLRPLEAAELSDGTLRFLCLAVALLSPRPPAFMALNEPENSLHPALLPALARLIAEASRHSQLWVTSHSPELAERIRRHRPLKTFQLSLRDGETVLQDDLEHHHHHH | not soluble
MPIILEKGQKIDLTKGQPKVAKLQVGLGWDPIGQSGGFLSSLFGSKPNVDCDASVVMLEGDRFLNKNDLVYFGNKLSTCGSIIHSGDNLTGEGAGDDETIFVELHKVPSRINRLVFVVNIYDCVNRRQDFGMIRNAYIRIQNPQTGEELARYNLSDNYAGKTTLIAGEMYRHGSEWKFSAVGEGTQDKNLSEIVSRYQ | not soluble
MPIIRPEELPKLMRTISMSNLSIPTRCLLEWQLLTLIRPAEASATAWSEIDIENKQWCIPAERMKAKRDHIVPLSEQALELLEIMRPISGNRQYVFPSRNDPRKPMNSQTANAALKRIGYSGKLVAHGLRSIASTAMNEAGFNADVIEAALAHSDKLEHHHHHH | not soluble
MPILEEPHESRTITLPPRPARLGGRCDVLVVGGGPAGFAAAVGAADAGADTVLVERYGFLGGNATAALVMPLMSFHNEHKQAAFTEAGDTSRLLPTDHGEGEPVVAGVLWQLLDRLTGRGGCLPPSPKTGYTVPFDPELFKFCLLEMADESGVRMLFHSFASGALPLDDGPGWRVVFETKSGPVVIDAGVVVDGTGDGDVAAACGAPYEVGRPEDGLVQPMTLMFRVADFARPDFAAYVREHPDQWRGVHGLWDLIEEARKNGELRLPREDILFFATPHPHEVAVNSTRVNRVLGTSVWDLTRAEYTARHQLAEIDRFLRTRVPGFEESYVVQSGTHVGVRESRRVVGDHRLTGHDILAARTFPDVIAHGAYPVDIHNPRGSGTVLKRVPRGSFYDIPLRCLLPRDTDRLLVAGRCISGTHVAHSSYRVMPIAMATGHAAGVCAALTVRHGSGPRGLPYRLVQRELLRQGARLRTEPHLEHHHHHH | not soluble
MPIMLEDYQKNFLELAIECQALRFGSFKLKSGRESPYFFNLGLFNTGKLLSNLATAYAIAIIQSDLKFDVIFGPAYKGIPLAAIVCVKLAEIGGSKFQNIQYAFNRKEAKDHGEGGIIVGSALENKRILIIDDVMTAGTAINEAFEIISNAKGQVVGSIIALDRQEVVSTDDKEGLSATQTVSKKYGIPVLSIVSLIHIITYLEGRITAEEKSKIEQYLQTYGASA | soluble
MPISELEKKWTGLTFEIAAEEMRRLKSEPTDRERLKLYALYKQALHGDIPNEDVYPVPAGDEVGRKKYAAWKSQKGANSEKCRADYVAIAEEMIKKYGRNIVRCKWNSEVWSVDY | soluble
MPISTPQEIIEDIRQGKMVILMDDEDRENEGDLIMAAEHITPAAINFMATHGRGLICLTLTKERCRRLGLNPMVQDNNAQYTTNFTVSIEAAEGVTTGISAADRARTVQAAVAKEAKAADLVQPGHIFPLAAQDGGVLTRAGHTEAGCDLARLAGLEPASVIVEILNDDGTMARRPDLEVFAEKHGLKLGTIADLIEYRNHTETTIERVAQCKLPTEYGEFELVTYRDIIDKQIHFALRKGDITSAPTLVRVHLQDTFTDLLHSNRAAERSWPLATAMQRIGQEGGVLVILGHEESSELLLHRVKMFELQDKGEAPAMAKKQGTSRRVGVGSQILADLGVKEMRLLSSPNKKYHALGGFGLNVVEYVCE | not soluble
MPIWNHNTAYRPWLVSKLKGSRSLLDVGSGDHSFADLAGRQVAHVDVVDPLINTTFEEFQPTQSYDAITFIASLHHMNAEEGLNKAVRILNPGGKLLIVGLAKNKTASDWIISGLQAFLSRPISLINREQQIYPFPTKEPSESLHEIRQLTKQLLPHRRIRRGIHFRYLLEWTKPLEHHHHHH | not soluble
MPKETFYNLSEEKRQRIINSAEKEFFRVPLSKASIANIVTGAQIPRGSFYQYFDDLNDLYHYFFEKKFQGFHENFKKELENHQGDLIEAWRQVAKKVLRRIVNSENSIFFENAIFGLNIQRDQNIIDSFANFHHPENKAPEYFDEIDFSFLKIKSKKDLITLRHIMSGIIIQAATAYFSKCDSGQKVDLEEILEGIDKQIDWLKYGVYKEKEHD | not soluble
MPKLPLLLSFPLLFFASFAYADEDFVTCYSVLKFINANDGSRLHSHDVKYGSGSGQQSVTAVKNSDDINSHWQIFPALNAKCNRGDAIKCGDKIRLKHLTTGTFLHSHHFTAPLSKQHQEVSAFGSEAESDTGDDWTVICNGDEWLESEQFKLRHAVTGSYLSLSGQQFGRPIHGQREVVGTDSITGGSAWKVAEGIYIKHQQKDL | soluble
MPKYYCDYCDTFLTHDSPSVRKTHNGGRKHKDNVRMFYQKWMEDQAQKLVDQTARAFATNRMQGAVPRTTMGMAPVPPVGHHPMMGGPPGMPMMAPRPFPGPGVGFPGAPGMPPFPGGPMGMAGPPGMPPMMPRPPQQFRPM | not soluble
MPLADIADVDIDPKGVFKYILIQVTDNSTKQQKFVVRGYYRCSFHDDILQETKSSAPSDLKLKCVGGGRIKHDEIGKDILVYGYSYGYGRADHQIAVDILKQKYPDYNIHFSNDGY | not soluble

From the DeepSol protein solubility set
